Measured values published in US20210130436A1 (published 2021).

Columns and labels:
human CD28 [1] = biological target: human CD28 (human, UniProt P10747 19-220); assay: flow cytometry, Jurkat cells (CD28)
human CTLA-4 [2] = biological target: T1, human CTLA-4 (human, UniProt P16410 36-223); assay: flow cytometry, CHO cells stably expressing CTLA4
T1 construct: also called huCTLA4

human CTLA-4 [3] = biological target: T2, human CTLA-4 (human, UniProt P16410 36-223); assay: flow cytometry, CHO cells stably expressing huCTLA-4, 33.3 nM Fc fusion, PE anti-human Fc
T2 construct: whole, on cells; CHO cells stably expressing huCTLA4; also called huCTLA4

human PD-L1 [4] = biological target: T3, human PD-L1 (human, UniProt Q9NZQ7 19-290); assay: flow cytometry, CHO cells stably expressing huPD-L1, 33.3 nM Fc fusion, PE anti-human Fc
T3 construct: whole, on cells; CHO cells stably expressing huPD-L1; also called huPD-L1

human PD-L1 [5] = biological target: T4, human PD-L1 (human, UniProt Q9NZQ7 19-290); assay: flow cytometry, CHO cells stably expressing PD-L1
T4 construct: also called huPD-L1; CD274

[6] = biological target: T5, human PD-L1 expressed on CHO cells (human, UniProt Q9NZQ7 19-290); assay: flow cytometry, CHO cells stably expressing PD-L1, Fc fusion at 33.3 nM
T5 construct: whole, on cells; Target on CHO cells stably expressing PD-L1; also called huPD-L1

[7] = biological target: T6, human CTLA4 expressed on CHO cells (human, UniProt P16410 36-223); assay: flow cytometry, CHO cells stably expressing CTLA4, Fc fusion at 33.3 nM
T6 construct: whole, on cells; Target on CHO cells stably expressing CTLA4; also called huCTLA4

human CD28 [8] = biological target: T7, human CD28 (human, UniProt P10747 19-220); assay: flow cytometry, Jurkat/IL2 reporter cells (endogenous CD28), 33.3 nM Fc fusion, PE anti-human Fc
T7 construct: whole, on cells; Jurkat/IL2 reporter cells, which endogenously express CD28

[9] = biological target: T8, human PD-L1 (full-length, expressed on CHO cells) (human, UniProt Q9NZQ7 19-290); assay: flow cytometry MFI at 33.3 nM relative to WT CD80 ECD-Fc (R&D), CHO/huPD-L1 cells
T8 construct: also called huPD-L1; CD274

[10] = biological target: T8, human PD-L1 (full-length, expressed on …); assay: flow cytometry, CHO cells expressing huPD-L1, PE anti-human Fc
[11] = biological target: T8, human PD-L1 (full-length, expressed on …); assay: flow cytometry, MFI on CHO/huPD-L1 cells over MFI on Jurkat (CD28) cells, 33.3 nM
[12] = biological target: T9, CD28 (endogenously expressed on Jurkat/IL2 reporter cells) (human, UniProt P10747 19-220); assay: flow cytometry MFI at 33.3 nM relative to WT CD80 ECD-Fc (R&D), Jurkat cells
T9 construct: Endogenous CD28 of Jurkat cells; also called human CD28

[13] = biological target: T9, CD28 (endogenously expressed on …); assay: flow cytometry, Jurkat/IL2 reporter cells (endogenous CD28), PE anti-human Fc

T6 sequence (P16410 36-223): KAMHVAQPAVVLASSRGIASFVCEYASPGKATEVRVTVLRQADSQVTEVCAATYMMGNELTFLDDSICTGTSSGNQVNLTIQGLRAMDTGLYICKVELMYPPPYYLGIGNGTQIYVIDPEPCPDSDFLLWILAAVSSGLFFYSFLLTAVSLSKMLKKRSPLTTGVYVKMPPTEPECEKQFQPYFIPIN
T8 sequence (Q9NZQ7 19-290): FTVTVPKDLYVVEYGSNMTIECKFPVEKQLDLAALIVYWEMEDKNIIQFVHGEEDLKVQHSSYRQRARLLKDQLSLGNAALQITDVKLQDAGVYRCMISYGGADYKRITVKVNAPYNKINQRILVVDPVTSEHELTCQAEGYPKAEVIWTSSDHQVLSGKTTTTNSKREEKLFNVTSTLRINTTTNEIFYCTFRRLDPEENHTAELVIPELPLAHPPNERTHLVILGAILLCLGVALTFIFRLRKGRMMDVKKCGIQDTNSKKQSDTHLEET
T5 sequence (Q9NZQ7 19-290): as above

B1: CD80 IgV-Fc S21P/E35D/K37E/D46E/M47I/V68M (Fc fusion, not shown: a dimerising Fc or GST)
chain: VIHVTKEVKEVATLSCGHNVPVEELAQTRIYWQKDKEMVLTMMSGEINIWPEYKNRTIFDITNNLSIMILALRPSDEGTYECVVLKYEKDAFKREHLAEVTLSVKAD
Human CD28 [1]
  MFI at 33.3 nM: 540 MFI
Human CTLA-4 [2]
  MFI at 33.3 nM: 20600 MFI

B2: variant CD80 IgV-Fc (inert) H18V/A26N/E35D/M47V/V68M/A71G (Fc fusion)
chain: VIHVTKEVKEVATLSCGVNVSVEELNQTRIYWQKDKKMVLTMMSGDVNIWPEYKNRTIFDITNNLSIMILGLRPSDEGTYECVVLKYEKDAFKREHLAEVTLSVKAD
notes: not shown: inert human IgG1 Fc
Human CTLA-4 [3]
  MFI at 33.3 nM: 22400 MFI
Human PD-L1 [4]
  MFI at 33.3 nM: 68200 MFI

B3: CD80 IgV-Fc T13R/Q33R/E35D/M38I/M47L/V68M/L85M/R94Q (Fc fusion, not shown: a dimerising Fc or GST)
chain: VIHVTKEVKEVARLSCGHNVSVEELAQTRIYWRKDKKIVLTMMSGDLNIWPEYKNRTIFDITNNLSIMILALRPSDEGTYECVVMKYEKDAFKQEHLAEVTLSVKAD
Human CD28 [1]
  MFI at 33.3 nM: 15.2 MFI
Human CTLA-4 [2]
  MFI at 33.3 nM: 19100 MFI
Human PD-L1 [5]
  MFI at 33.3 nM: 20400 MFI

B4: CD80 E35D/M47V/V68M IgV-Fc (Fc fusion, not shown: small tags and cut ends; a dimerising Fc or GST)
chain: VIHVTKEVKEVATLSCGHNVSVEELAQTRIYWQKDKKMVLTMMSGDVNIWPEYKNRTIFDITNNLSIMILALRPSDEGTYECVVLKYEKDAFKREHLAEVTLSVKAD
[6]
  MFI at 33.3 nM: 16600 MFI

B5: variant CD80 IgV-Fc (inert) H18V/A26P/E35D/M47V/V68L/A71G (Fc fusion)
chain: VIHVTKEVKEVATLSCGVNVSVEELPQTRIYWQKDKKMVLTMMSGDVNIWPEYKNRTIFDITNNLSILILGLRPSDEGTYECVVLKYEKDAFKREHLAEVTLSVKAD
notes: as for B2
Human CTLA-4 [3]
  MFI at 33.3 nM: 13700 MFI
Human PD-L1 [4]
  MFI at 33.3 nM: 55400 MFI

B6: CD80 N48K/V68M/K89N IgV-Fc (Fc fusion, not shown: small tags and cut ends; a dimerising Fc or GST)
chain: VIHVTKEVKEVATLSCGHNVSVEELAQTRIYWQKEKKMVLTMMSGDMKIWPEYKNRTIFDITNNLSIMILALRPSDEGTYECVVLKYENDAFKREHLAEVTLSVKAD
[7]
  MFI at 33.3 nM: 19100 MFI
[6]
  MFI at 33.3 nM: 11500 MFI

B7: variant CD80 IgV-Fc (inert) H18Y/A26P/E35D/M47V/V68M/A71G (Fc fusion)
chain: VIHVTKEVKEVATLSCGYNVSVEELPQTRIYWQKDKKMVLTMMSGDVNIWPEYKNRTIFDITNNLSIMILGLRPSDEGTYECVVLKYEKDAFKREHLAEVTLSVKAD
notes: as for B2
Human CD28 [8]
  MFI at 33.3 nM: 6910 MFI
Human PD-L1 [4]
  MFI at 33.3 nM: 51500 MFI

B8: variant CD80 IgV-Fc Q33L/E35D/T41S/M47V (Fc fusion, not shown: a dimerising Fc or GST)
chain: VIHVTKEVKEVATLSCGHNVSVEELAQTRIYWLKDKKMVLSMMSGDVNIWPEYKNRTIFDITNNLSIVILALRPSDEGTYECVVLKYEKDAFKREHLAEVTLSVKAD
[9]
  Fold change to WT: 5.52 fold
[10]
  MFI at 33.3 nM: 43800 MFI
[11]
  Ratio of PDL1:CD28: 153 ratio
[12]
  Fold change to WT: 0.04 fold
[13]
  MFI at 33.3 nM: 287 MFI

B9: CD80 E35D/M47V/N48K IgV-Fc (Fc fusion, not shown: small tags and cut ends; a dimerising Fc or GST)
chain: VIHVTKEVKEVATLSCGHNVSVEELAQTRIYWQKDKKMVLTMMSGDVKIWPEYKNRTIFDITNNLSIVILALRPSDEGTYECVVLKYEKDAFKREHLAEVTLSVKAD
[7]
  MFI at 33.3 nM: 47400 MFI
[6]
  MFI at 33.3 nM: 4850 MFI

B10: CD80 IgV-Fc V22D/E24D/E35D/M47V/V68M (Fc fusion, not shown: a dimerising Fc or GST)
chain: VIHVTKEVKEVATLSCGHNVSDEDLAQTRIYWQKDKKMVLTMMSGDVNIWPEYKNRTIFDITNNLSIMILALRPSDEGTYECVVLKYEKDAFKREHLAEVTLSVKAD
Human CD28 [1]
  MFI at 33.3 nM: 191 MFI
Human CTLA-4 [2]
  MFI at 33.3 nM: 16900 MFI

B11: CD80 E35D/M47V/V68M/K89N IgV-Fc (Fc fusion, not shown: small tags and cut ends; a dimerising Fc or GST)
chain: VIHVTKEVKEVATLSCGHNVSVEELAQTRIYWQKDKKMVLTMMSGDVNIWPEYKNRTIFDITNNLSIMILALRPSDEGTYECVVLKYENDAFKREHLAEVTLSVKAD
[7]
  MFI at 33.3 nM: 29500 MFI
[6]
  MFI at 33.3 nM: 21800 MFI

B12: variant CD80 IgV-Fc Q33L/E35D/M47I (Fc fusion, not shown: a dimerising Fc or GST)
chain: VIHVTKEVKEVATLSCGHNVSVEELAQTRIYWLKDKKMVLTMMSGDINIWPEYKNRTIFDITNNLSIVILALRPSDEGTYECVVLKYEKDAFKREHLAEVTLSVKAD
[9]
  Fold change to WT: 4.7 fold
[10]
  MFI at 33.3 nM: 37400 MFI
[11]
  Ratio of PDL1:CD28: 132 ratio
[12]
  Fold change to WT: 0.04 fold
[13]
  MFI at 33.3 nM: 282 MFI

B13: CD80 E35D/M47V/N48K/V68M IgV-Fc (Fc fusion, not shown: small tags and cut ends; a dimerising Fc or GST)
chain: VIHVTKEVKEVATLSCGHNVSVEELAQTRIYWQKDKKMVLTMMSGDVKIWPEYKNRTIFDITNNLSIMILALRPSDEGTYECVVLKYEKDAFKREHLAEVTLSVKAD
[7]
  MFI at 33.3 nM: 32900 MFI
[6]
  MFI at 33.3 nM: 23500 MFI

B14: CD80 V68M/K89N IgV-Fc (Fc fusion, not shown: small tags and cut ends; a dimerising Fc or GST)
chain: VIHVTKEVKEVATLSCGHNVSVEELAQTRIYWQKEKKMVLTMMSGDMNIWPEYKNRTIFDITNNLSIMILALRPSDEGTYECVVLKYENDAFKREHLAEVTLSVKAD
[7]
  MFI at 33.3 nM: 2330 MFI
[6]
  MFI at 33.3 nM: 538 MFI

B15: variant CD80 IgV-Fc (inert) A26P/E35D/M47I/V68M/A71G/D90G (Fc fusion)
chain: VIHVTKEVKEVATLSCGHNVSVEELPQTRIYWQKDKKMVLTMMSGDINIWPEYKNRTIFDITNNLSIMILGLRPSDEGTYECVVLKYEKGAFKREHLAEVTLSVKAD
notes: as for B2
Human CTLA-4 [3]
  MFI at 33.3 nM: 19800 MFI
Human CD28 [8]
  MFI at 33.3 nM: 8190 MFI

B16: variant CD80 IgV-Fc (inert) H18F/A26P/E35D/M47I/V68M/A71G/D90G (Fc fusion)
chain: VIHVTKEVKEVATLSCGFNVSVEELPQTRIYWQKDKKMVLTMMSGDINIWPEYKNRTIFDITNNLSIMILGLRPSDEGTYECVVLKYEKGAFKREHLAEVTLSVKAD
notes: as for B2
Human CTLA-4 [3]
  MFI at 33.3 nM: 23900 MFI
Human CD28 [8]
  MFI at 33.3 nM: 4800 MFI
Human PD-L1 [4]
  MFI at 33.3 nM: 32300 MFI

B17: CD80 IgV-Fc S21P/E35D/K37E/D46E/M47I/V68M/R94L (Fc fusion, not shown: a dimerising Fc or GST)
chain: VIHVTKEVKEVATLSCGHNVPVEELAQTRIYWQKDKEMVLTMMSGEINIWPEYKNRTIFDITNNLSIMILALRPSDEGTYECVVLKYEKDAFKLEHLAEVTLSVKAD
Human CD28 [1]
  MFI at 33.3 nM: 284 MFI
Human CTLA-4 [2]
  MFI at 33.3 nM: 20100 MFI

B18: CD80 M47V/N48K/V68M/K89N IgV-Fc (Fc fusion, not shown: small tags and cut ends; a dimerising Fc or GST)
chain: VIHVTKEVKEVATLSCGHNVSVEELAQTRIYWQKEKKMVLTMMSGDVKIWPEYKNRTIFDITNNLSIMILALRPSDEGTYECVVLKYENDAFKREHLAEVTLSVKAD
[6]
  MFI at 33.3 nM: 23700 MFI

B19: variant CD80 IgV-Fc (inert) H18R/A26P/E35D/D46N/M47V/V68M/A71G/D90P (Fc fusion)
chain: VIHVTKEVKEVATLSCGRNVSVEELPQTRIYWQKDKKMVLTMMSGNVNIWPEYKNRTIFDITNNLSIMILGLRPSDEGTYECVVLKYEKPAFKREHLAEVTLSVKAD
notes: as for B2
Human CTLA-4 [3]
  MFI at 33.3 nM: 17300 MFI
Human PD-L1 [4]
  MFI at 33.3 nM: 29300 MFI

B20: CD80 E35D/V68M/K89N IgV-Fc (Fc fusion, not shown: small tags and cut ends; a dimerising Fc or GST)
chain: VIHVTKEVKEVATLSCGHNVSVEELAQTRIYWQKDKKMVLTMMSGDMNIWPEYKNRTIFDITNNLSIMILALRPSDEGTYECVVLKYENDAFKREHLAEVTLSVKAD
[7]
  MFI at 33.3 nM: 24800 MFI

B21: variant CD80 IgV-Fc Q33K/E35D/D46V/L85Q (Fc fusion, not shown: a dimerising Fc or GST)
chain: VIHVTKEVKEVATLSCGHNVSVEELAQTRIYWKKDKKMVLTMMSGVMNIWPEYKNRTIFDITNNLSIVILALRPSDEGTYECVVQKYEKDAFKREHLAEVTLSVKAD
[9]
  Fold change to WT: 3.36 fold
[10]
  MFI at 33.3 nM: 26700 MFI
[11]
  Ratio of PDL1:CD28: 104 ratio
[12]
  Fold change to WT: 0.03 fold
[13]
  MFI at 33.3 nM: 257 MFI
